From patent publication US10077433B2, “Permuted and nonpermuted luciferase biosensors” (PROMEGA CORPORATION, priority 2006, dated 2018) come the findings set out here.

Assay [1] deals with intracellular cAMP concentration, HEK 293 cells. Briefly: Intracellular cAMP changes in HEK293 cells with CPM-hRL Luc/RIIβB biosensors (isopreterenol, propranolol, forskolin). Format: cell-based. As for the experimental part:
Cells were cultured in 2 mL DMEM/F12 with HEPES buffer (Invitrogen) and 10% FBS at 37° C. with 5% CO2 in a 6 well plate. Three of the constructs described in Example XVII were used to detect intracellular changes of cAMP concentrations. The constructs used were: pBFB277, pBFB279 and pBFB287. HEK293 cells stably expressing CPM91-hRL/RIIβB (ORF derived from 201325.44.H6 were also used in these experiments. HEK293 cells were transfected with TransIt®-LT1 Reagent (MIRUS) using 6 μL TransIt®-LT1 reagent and 2 μg DNA (pBFB277, pBFB279 and pBFB287) per well of a 6 well plate. Cells were allowed to grow overnight and were assayed the next day. Approximately 1 day after transfection, cells were trypsinized, resuspended in fresh DMEM/F12 with HEPES buffer (Invitrogen) with 1% FBS and plated in a 96 well plate at approximately 10,000 cells per well. Alternatively, a HEK293 cell line stably expressing CP91-hRL/RIIβB was plated in a 96 well plate at approximately 10,000 cells per well. A 10 μL aliquot of 600 μM EnduRen was added to a total of 100 μL of cell culture to give a final concentration of approximately […]. Cells were then incubated at 37° C. with 5% CO2. After 5 hours, the plate was removed from the incubator and allowed to cool to room temperature for at least 20 minutes. After 20 minutes, baseline measurements of luminescence were measured using a 96 well Veritas Luminometer (Turner Biosystems; integration time of 0.5 seconds per well). Cells were then induced with 10 μM isopreterenol (CalBiochem), 50 μM forskolin (Sigma) or not induced (0.1% DMSO, Sigma) and luminescence was measured continuously for about 30 minutes. After 30 minutes, 10 μM propranolol (Sigma) was added to cells already induced with isopreterenol and 0.1% DMSO was added to all other samples. Luminescence was then measured continuously for the next 30 minutes. A final addition of 50 μM forskolin was added to the isopreterenol/propranolol sample and 0.1% DMSO was added to all other samples. Luminescence was then measured continuously for the next half hour. Samples were measured in sets of 4-6 replicates. 10× stocks of isopreterenol, propranolol, forskolin and DMSO were made in DMEM/F12 with HEPES buffer (Invitrogen) and 1% FBS.

Assay [2] shares this test system. Briefly: Intracellular cAMP changes in HEK 293 cells transiently transfected with CPM-FF Luc/RIIβB (pBFB141). The assay is classed as cell-based. The procedure:
Cells were cultured in 60 ml in DMEM/F12 with HEPES buffer (Invitrogen) with 10% FBS at 37° C. with 5% CO2.
The ORF encoding the CPM-FF Luc/RIIβB based cAMP biosensor with X/Y linker lengths of (X=10, Y=0) was transferred to Flexi vector pF4K (Flexi vector system; Promega Corp.). The resultant plasmid construct (pBFB141) utilizes an upstream CMV promoter for expression of the associated cAMP biosensor in mammalian cells.
Cells were transfected with TransIt®-LT1 Reagent (MIRUS) using 0.3 μl TransIt®-LT1 reagent and 0.15 μg DNA per well of a 96 well plate. Cells were allowed to grow overnight and were assayed the next day.
Approximately 1 day after transfection, cells were removed from the incubator and equilibrated to room temperature. A 5 μl aliquot of 100 mM Luciferin EF was added to a total of 90 μl of cell culture plus transfection reagent to give a final concentration of approximately 5 mM luciferin. Cells were then incubated at room temperature for at least 90 minutes. After 90 minutes at room temperature, baseline measurements of luminescence were measured using a 96 well Veritas Luminometer (Turner Biosystems; integration time of 0.5 seconds per well). Cells were then induced with 10 μM isopreterenol (CalBiochem), 50 mM forskolin (Sigma) or not induced (0.1% DMSO, Sigma) and luminescence was measured continuously for about 30 minutes. After 30 minutes, […] (Sigma) was added to cells with isopreterenol and 0.1% DMSO was added to all other samples. Luminescence was then measured continuously for the next 30 minutes. A final addition of 50 μM forskolin was added to the isopreterenol/propranolol sample and 0.1% DMSO was added to all other samples. Luminescence was then measured continuously for the next half hour. Samples were measured in sets of 12 replicates. 10× stocks of isopreterenol, propranolol, forskolin and DMSO were made in 1×PBS (Invitrogen).

A short description of assay [3]: Nonpermuted Oplophorus luciferase/RIIβB insertion constructs, luminescence with or without exogenous cAMP. Format: biochemical. Particulars: for luminescence, + exogenous cAMP: addition of exogenous cAMP to 50 μM final concentration; for luminescence, − no exogenous cAMP: no exogenous cAMP was added. As for the experimental part:
Protein was expressed from these constructs using the TnT T7 Coupled Reticulocyte Lysate System. Following expression, 9 μL of TNT reaction was mixed with 1 μL 1 mM cAMP stock or H2O, and the reactions were allowed to incubate at room temperature for approximately 15 minutes. Following incubation, 10 μL of 2× buffer (300 mM HEPES, pH=8.0, 200 mM thiourea) was added to each reaction, and luminescence was measured from the resulting 20 μL of solution following addition of 100 μL of Renilla Assay Reagent using a Turner 20/20N luminometer (1 second integration time).

Assay [4] in a line: CPM hRL / GAF A domain biosensor, luminescence with or without exogenous cAMP (reticulocyte lysate). Format: biochemical. The procedure: An additional type of cAMP biosensor was constructed using a circularly permuted Renilla luciferase (hRL) and a GAF domain. The plasmid DNA construct encoding the following fusion protein: Met-(hRL 92-311)-[…]-(GAF A domain from Trypanosoma brucei PDE; Genbank AF192755 amino acids 241-375)-[…]-A-(hRL 3-91)-Val (SEQ ID NO:185) [clone pBFB232]. Following expression using the T7 Coupled Reticulocyte Lysate System, luminescence activity was measured in the presence or absence of exogenous cAMP. In the presence of cAMP, the measured activity was 7595 RLU; in the absence of cAMP, the measured activity was 298 RLU (about a 25 fold change). […] This type of reagent may allow the monitoring of changes in cAMP concentration in living cells, and it also may provide distinct advantages over existing FRET-based cAMP biosensors in that assay format. Moreover, since the GAF domain is a highly conserved fold in nature responsible for binding a wide range of molecules, it is likely that additional types of CPM hRL biosensors could be made using this fold.

For the molecule `CC(C)NCC(O)c1ccc(O)c(O)c1` (centres unmarked) [isopreterenol], the “increase in light output” value in assay [1] (HEK293 cells stably expressing CPM91-hRL/RIIβB, isopreterenol and forskolin treatment) is on record as “about 5 fold”. In addition, the “increase in light output from transfected cells” value in assay [1] (HEK 293 transiently transfected with CPM-hRL Luc/RIIβB (X=4, Y=20) constructs, 10 μM isopreterenol or 50 μM forskolin alone) is on record as “approximately 2 fold”; in assay [2] (HEK 293 cells, pBFB141, 10 μM isopreterenol or 50 mM forskolin (so in the source), treatment alone, room temperature), “approximately 2 fold”.
Consider “Wild type luciferase: wild type (firefly) luciferase control”, for which the “response to known modulators of intracellular cAMP concentration” value in assay [2] (control constructs in HEK 293 cells) is given as “no specific response”.

B1: pBFB400: Met-(OpLuc 1-84)-GSTG-R2betaB-GSSG-(OpLuc 85-169) (protein)
chain: MFTLADFVGDWQQTAGYNQDQVLEQGGLSSLFQALGVSVTPIQKVVLSGENGLKADIHVIIPYEGLSGFQMGLIEMIFKVVYPVDGSTGMYESFIESLPFLKSLEFSERLKVVDVIGTKVYNDGEQIIAQGDSADSFFIVESGEVKITMKRKGKSEVEENGAVEIARCSRGQYFGELALVTNKPRAASAHAIGTVKCLAMDVQAFERLLGPCMEIMKRNIATYEEQLVALFGTNMDIVGSSGDHHFKIILHYGTLVIDGVTPNMIDYFGRPYPGIAVFDGKQITVTGTLWNGNKIYDERLINPDGSLLFRVTINGVTGWRLCENILA
As to B1, in assay [3], the “luminescence, + exogenous cAMP” value was 10,369 and the “luminescence, − no exogenous cAMP” value is on record as 6,387.

B2: pBFB399: OpLuc 1-50 / R2betaB / OpLuc 51-169, 20 aa linkers (SEQ ID NO: 192) (protein)
chain: MFTLADFVGDWQQTAGYNQDQVLEQGGLSSLFQALGVSVTPIQKVVLSGENGSSGGSGGSGGGSGGSGGSGMYESFIESLPFLKSLEFSERLKVVDVIGTKVYNDGEQIIAQGDSADSFFIVESGEVKITMKRKGKSEVEENGAVEIARCSRGQYFGELALVTNKPRAASAHAIGTVKCLAMDVQAFERLLGPCMEIMKRNIATYEEQLVALFGTNMDIVGSGGSGGSGGTSGGSGGSSGGLKADIHVIIPYEGLSGFQMGLIEMIFKVVYPVDDHHFKIILHYGTLVIDGVTPNMIDYFGRPYPGIAVFDGKQITVTGTLWNGNKIYDERLINPDGSLLFRVTINGVTGWRLCENILA
For B2, in assay [3], the “luminescence, + exogenous cAMP” value is 38,051 and the “luminescence, − no exogenous cAMP” value was 356.

B3: pBFB398: Met-(OpLuc 1-50)-GSSGGSGGSG-R2betaB-GSSGGSGGSG-(OpLuc 51-169) (protein)
chain: MFTLADFVGDWQQTAGYNQDQVLEQGGLSSLFQALGVSVTPIQKVVLSGENGSSGGSGGSGMYESFIESLPFLKSLEFSERLKVVDVIGTKVYNDGEQIIAQGDSADSFFIVESGEVKITMKRKGKSEVEENGAVEIARCSRGQYFGELALVTNKPRAASAHAIGTVKCLAMDVQAFERLLGPCMEIMKRNIATYEEQLVALFGTNMDIVGSSGGSGGSGGLKADIHVIIPYEGLSGFQMGLIEMIFKVVYPVDDHHFKIILHYGTLVIDGVTPNMIDYFGRPYPGIAVFDGKQITVTGTLWNGNKIYDERLINPDGSLLFRVTINGVTGWRLCENILA
For the molecule B3, in assay [3], the “luminescence, + exogenous cAMP” value is reported as 4,917 and the “luminescence, − no exogenous cAMP” value came out at 291.

B4: pBFB402: OpLuc 1-84 / R2betaB / OpLuc 85-169, 20 aa linkers (SEQ ID NO: 195) (protein)
chain: MFTLADFVGDWQQTAGYNQDQVLEQGGLSSLFQALGVSVTPIQKVVLSGENGLKADIHVIIPYEGLSGFQMGLIEMIFKVVYPVDGSSGGSGGSGGGSGGSGGSGMYESFIESLPFLKSLEFSERLKVVDVIGTKVYNDGEQIIAQGDSADSFFIVESGEVKITMKRKGKSEVEENGAVEIARCSRGQYFGELALVTNKPRAASAHAIGTVKCLAMDVQAFERLLGPCMEIMKRNIATYEEQLVALFGTNMDIVGSGGSGGSGGTSGGSGGSSGDHHFKIILHYGTLVIDGVTPNMIDYFGRPYPGIAVFDGKQITVTGTLWNGNKIYDERLINPDGSLLFRVTINGVTGWRLCENILA
As to B4, in assay [3], the “luminescence, + exogenous cAMP” value is listed as 62,264 and the “luminescence, − no exogenous cAMP” value was 8,568.

B5: pBFB232: CPM hRL 92-311/3-91 with GAF A domain from Trypanosoma brucei PDE (SEQ ID NO:185) (protein)
chain: MYRLLDHYKYLTAWFELLNLPKKIIFVGHDWGACLAFHYSYEHQDKIKAIVHAESVVDVIESWDEWPDIEEDIALIKSEEGEKMVLENNFFVETMLPSKIMRKLEPEEFAAYLEPFKEKGEVRRPTLSWPREIPLVKGGKPDVVQIVRNYNAYLRASDDLPKMFIESDPGFFSNAIVEGAKKFPNTEFVKVKGLHFSQEDAPDEMGKYIKSFVERVLKNEQGSSGGSGGSGGGSGGSGGSGSIMNTVKSLTESARCSLFLVRGDVLEAHFEDGNVVTIPRGAGIAGYVAQTGETVNIVDAYADDRFNREVDKATGYRTKTILCMPVMYEGTIVAVAQLINKLDLTTESGLRLPRVFGKRDEELFQTFSMFAGASLRGSGGSGGSGGTSGGSGGSSGASKVYDPEQRKRMITGPQWWARCKQMNVLDSFINYYDSEKHAENAVIFLHGNAASSYLWRHVVPHIEPVARCIIPDLIGMGKSGKSGNGSV
On to B5, for which the “measured activity in the presence of cAMP” value in assay [4] (exogenous cAMP) is given as 7595 RLU. Besides, the “measured activity in the absence of cAMP” value in assay [4] (no cAMP) was determined as 298 RLU. Further, the “fold change with cAMP” value in assay [4] (presence vs absence of cAMP) is on record as roughly 25 fold.

B6: pBFB401: Met-(OpLuc 1-84)-GSSGGSGGSG-R2betaB-GSSGGSGGSG-(OpLuc 85-169) (protein)
chain: MFTLADFVGDWQQTAGYNQDQVLEQGGLSSLFQALGVSVTPIQKVVLSGENGLKADIHVIIPYEGLSGFQMGLIEMIFKVVYPVDGSSGGSGGSGMYESFIESLPFLKSLEFSERLKVVDVIGTKVYNDGEQIIAQGDSADSFFIVESGEVKITMKRKGKSEVEENGAVEIARCSRGQYFGELALVTNKPRAASAHAIGTVKCLAMDVQAFERLLGPCMEIMKRNIATYEEQLVALFGTNMDIVGSSGGSGGSGDHHFKIILHYGTLVIDGVTPNMIDYFGRPYPGIAVFDGKQITVTGTLWNGNKIYDERLINPDGSLLFRVTINGVTGWRLCENILA
Regarding B6, in assay [3], the “luminescence, + exogenous cAMP” value is given as 6,124 and the “luminescence, − no exogenous cAMP” value is recorded as 2,304.
